This assay addresses human corticotropin-releasing factor 2α (CRF2 α receptor) (human), Q13324. Description: cell-based or functional assay.

Starred links: 1 amine or outer side, 2 acyl side, 3 side chain; linkers in the order of their positions; H or OH if unused. Non-standard residues stand in square brackets, D forms with d. Groups on a side chain read outwards from the residue. No end group written: not given here. *: point of attachment. C20 diacid = O=C(O)CCCCCCCCCCCCCCCCCCC(=O)*; C18 diacid = O=C(O)CCCCCCCCCCCCCCCCC(=O)*; γGlu = O=C(O)[C@H](CCC(=O)[*:2])N[*:1]; Palmitoyl = CCCCCCCCCCCCCCCC(=O)*; AEEA = NCCOCCOCC(=O)O; Aib = CC(C)(N)C(=O)O

Sequence of human corticotropin-releasing factor 2α (CRF2 α receptor) (human), Q13324 (Q13324 20-411): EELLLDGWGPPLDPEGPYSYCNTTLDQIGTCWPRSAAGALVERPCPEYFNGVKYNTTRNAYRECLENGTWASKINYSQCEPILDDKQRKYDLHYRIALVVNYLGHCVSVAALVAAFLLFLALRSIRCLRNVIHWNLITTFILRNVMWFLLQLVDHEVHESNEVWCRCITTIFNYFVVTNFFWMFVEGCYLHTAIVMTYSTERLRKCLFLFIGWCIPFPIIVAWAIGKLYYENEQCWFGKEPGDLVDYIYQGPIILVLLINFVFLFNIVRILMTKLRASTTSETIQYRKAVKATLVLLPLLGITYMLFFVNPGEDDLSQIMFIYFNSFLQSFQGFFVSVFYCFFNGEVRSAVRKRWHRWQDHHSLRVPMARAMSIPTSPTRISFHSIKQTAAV

B1: SEQ ID NO: 177 (peptide)
peptide: IVLSLD[dV]PIKLK([AEEA-AEEA-γGlu-γGlu-C20 diacid])QILLKQERQKKQRQQAEKNKQILAQV-NH2
modifications: N-terminus assumed
SMILES: CC[C@H](C)[C@H](N)C(=O)N[C@H](C(=O)N[C@@H](CC(C)C)C(=O)N[C@@H](CO)C(=O)N[C@@H](CC(C)C)C(=O)N[C@@H](CC(=O)O)C(=O)N[C@@H](C(=O)N1CCC[C@H]1C(=O)N[C@H](C(=O)N[C@@H](CCCCN)C(=O)N[C@@H](CC(C)C)C(=O)N[C@@H](CCCCNC(=O)COCCOCCNC(=O)COCCOCCNC(=O)CC[C@H](NC(=O)CC[C@H](NC(=O)CCCCCCCCCCCCCCCCCCC(=O)O)C(=O)O)C(=O)O)C(=O)N[C@@H](CCC(N)=O)C(=O)N[C@H](C(=O)N[C@@H](CC(C)C)C(=O)N[C@@H](CC(C)C)C(=O)N[C@@H](CCCCN)C(=O)N[C@@H](CCC(N)=O)C(=O)N[C@@H](CCC(=O)O)C(=O)N[C@@H](CCCNC(=N)N)C(=O)N[C@@H](CCC(N)=O)C(=O)N[C@@H](CCCCN)C(=O)N[C@@H](CCCCN)C(=O)N[C@@H](CCC(N)=O)C(=O)N[C@@H](CCCNC(=N)N)C(=O)N[C@@H](CCC(N)=O)C(=O)N[C@@H](CCC(N)=O)C(=O)N[C@@H](C)C(=O)N[C@@H](CCC(=O)O)C(=O)N[C@@H](CCCCN)C(=O)N[C@@H](CC(N)=O)C(=O)N[C@@H](CCCCN)C(=O)N[C@@H](CCC(N)=O)C(=O)N[C@H](C(=O)N[C@@H](CC(C)C)C(=O)N[C@@H](C)C(=O)N[C@@H](CCC(N)=O)C(=O)N[C@H](C(N)=O)C(C)C)[C@@H](C)CC)[C@@H](C)CC)[C@@H](C)CC)C(C)C)C(C)C
Consider B1, for which the EC50 [nM], 0% HSA came out at 0.07 nM and the EC50 [nM], 0.1% HSA was 5.19 nM.

B2: SEQ ID NO: 181 (peptide)
peptide: IVLSLD[dV]PIKLK([γGlu-C18 diacid])QILLKQERQKKQRQQAEKNKQILAQV-NH2
modifications: N-terminus assumed
SMILES: CC[C@H](C)[C@H](N)C(=O)N[C@H](C(=O)N[C@@H](CC(C)C)C(=O)N[C@@H](CO)C(=O)N[C@@H](CC(C)C)C(=O)N[C@@H](CC(=O)O)C(=O)N[C@@H](C(=O)N1CCC[C@H]1C(=O)N[C@H](C(=O)N[C@@H](CCCCN)C(=O)N[C@@H](CC(C)C)C(=O)N[C@@H](CCCCNC(=O)CC[C@H](NC(=O)CCCCCCCCCCCCCCCCC(=O)O)C(=O)O)C(=O)N[C@@H](CCC(N)=O)C(=O)N[C@H](C(=O)N[C@@H](CC(C)C)C(=O)N[C@@H](CC(C)C)C(=O)N[C@@H](CCCCN)C(=O)N[C@@H](CCC(N)=O)C(=O)N[C@@H](CCC(=O)O)C(=O)N[C@@H](CCCNC(=N)N)C(=O)N[C@@H](CCC(N)=O)C(=O)N[C@@H](CCCCN)C(=O)N[C@@H](CCCCN)C(=O)N[C@@H](CCC(N)=O)C(=O)N[C@@H](CCCNC(=N)N)C(=O)N[C@@H](CCC(N)=O)C(=O)N[C@@H](CCC(N)=O)C(=O)N[C@@H](C)C(=O)N[C@@H](CCC(=O)O)C(=O)N[C@@H](CCCCN)C(=O)N[C@@H](CC(N)=O)C(=O)N[C@@H](CCCCN)C(=O)N[C@@H](CCC(N)=O)C(=O)N[C@H](C(=O)N[C@@H](CC(C)C)C(=O)N[C@@H](C)C(=O)N[C@@H](CCC(N)=O)C(=O)N[C@H](C(N)=O)C(C)C)[C@@H](C)CC)[C@@H](C)CC)[C@@H](C)CC)C(C)C)C(C)C
In turn, B2 gave an EC50 [nM], 0% HSA of 1.18 nM and an EC50 [nM], 0.1% HSA of 15.3 nM.

B3: SEQ ID NO: 178 (peptide)
peptide: IVLSLD[dV]PIKLK([AEEA-AEEA-γGlu-C20 diacid])QILLKQERQKKQRQQAEKNKQILAQV-NH2
modifications: N-terminus assumed
SMILES: CC[C@H](C)[C@H](N)C(=O)N[C@H](C(=O)N[C@@H](CC(C)C)C(=O)N[C@@H](CO)C(=O)N[C@@H](CC(C)C)C(=O)N[C@@H](CC(=O)O)C(=O)N[C@@H](C(=O)N1CCC[C@H]1C(=O)N[C@H](C(=O)N[C@@H](CCCCN)C(=O)N[C@@H](CC(C)C)C(=O)N[C@@H](CCCCNC(=O)COCCOCCNC(=O)COCCOCCNC(=O)CC[C@H](NC(=O)CCCCCCCCCCCCCCCCCCC(=O)O)C(=O)O)C(=O)N[C@@H](CCC(N)=O)C(=O)N[C@H](C(=O)N[C@@H](CC(C)C)C(=O)N[C@@H](CC(C)C)C(=O)N[C@@H](CCCCN)C(=O)N[C@@H](CCC(N)=O)C(=O)N[C@@H](CCC(=O)O)C(=O)N[C@@H](CCCNC(=N)N)C(=O)N[C@@H](CCC(N)=O)C(=O)N[C@@H](CCCCN)C(=O)N[C@@H](CCCCN)C(=O)N[C@@H](CCC(N)=O)C(=O)N[C@@H](CCCNC(=N)N)C(=O)N[C@@H](CCC(N)=O)C(=O)N[C@@H](CCC(N)=O)C(=O)N[C@@H](C)C(=O)N[C@@H](CCC(=O)O)C(=O)N[C@@H](CCCCN)C(=O)N[C@@H](CC(N)=O)C(=O)N[C@@H](CCCCN)C(=O)N[C@@H](CCC(N)=O)C(=O)N[C@H](C(=O)N[C@@H](CC(C)C)C(=O)N[C@@H](C)C(=O)N[C@@H](CCC(N)=O)C(=O)N[C@H](C(N)=O)C(C)C)[C@@H](C)CC)[C@@H](C)CC)[C@@H](C)CC)C(C)C)C(C)C
Consider B3, for which the EC50 [nM], 0% HSA was found to be 0.04 nM and the EC50 [nM], 0.1% HSA worked out at 3.77 nM.

B4: SEQ ID NO: 21 (peptide)
peptide: IVLSLD[dV]PTKLK([γGlu-Palmitoyl])QKLLKQERQRKE[Aib]EQAEKNKRILERV-NH2
modifications: N-terminus assumed
SMILES: CCCCCCCCCCCCCCCC(=O)N[C@@H](CCC(=O)NCCCC[C@H](NC(=O)[C@H](CC(C)C)NC(=O)[C@H](CCCCN)NC(=O)[C@@H](NC(=O)[C@@H]1CCCN1C(=O)[C@H](NC(=O)[C@H](CC(=O)O)NC(=O)[C@H](CC(C)C)NC(=O)[C@H](CO)NC(=O)[C@H](CC(C)C)NC(=O)[C@@H](NC(=O)[C@@H](N)[C@@H](C)CC)C(C)C)C(C)C)[C@@H](C)O)C(=O)N[C@@H](CCC(N)=O)C(=O)N[C@@H](CCCCN)C(=O)N[C@@H](CC(C)C)C(=O)N[C@@H](CC(C)C)C(=O)N[C@@H](CCCCN)C(=O)N[C@@H](CCC(N)=O)C(=O)N[C@@H](CCC(=O)O)C(=O)N[C@@H](CCCNC(=N)N)C(=O)N[C@@H](CCC(N)=O)C(=O)N[C@@H](CCCNC(=N)N)C(=O)N[C@@H](CCCCN)C(=O)N[C@@H](CCC(=O)O)C(=O)NC(C)(C)C(=O)N[C@@H](CCC(=O)O)C(=O)N[C@@H](CCC(N)=O)C(=O)N[C@@H](C)C(=O)N[C@@H](CCC(=O)O)C(=O)N[C@@H](CCCCN)C(=O)N[C@@H](CC(N)=O)C(=O)N[C@@H](CCCCN)C(=O)N[C@@H](CCCNC(=N)N)C(=O)N[C@H](C(=O)N[C@@H](CC(C)C)C(=O)N[C@@H](CCC(=O)O)C(=O)N[C@@H](CCCNC(=N)N)C(=O)N[C@H](C(N)=O)C(C)C)[C@@H](C)CC)C(=O)O
Molecule B4 showed an EC50 [nM], 0% HSA of 0.02 nM.

B5: SEQ ID NO: 180 (peptide)
peptide: IVLSLD[dV]PIKLK([γGlu-C18 diacid])QILLKQARQK[Aib]QRAQAEKNKRILERV-NH2
modifications: N-terminus assumed
SMILES: CC[C@H](C)[C@H](N)C(=O)N[C@H](C(=O)N[C@@H](CC(C)C)C(=O)N[C@@H](CO)C(=O)N[C@@H](CC(C)C)C(=O)N[C@@H](CC(=O)O)C(=O)N[C@@H](C(=O)N1CCC[C@H]1C(=O)N[C@H](C(=O)N[C@@H](CCCCN)C(=O)N[C@@H](CC(C)C)C(=O)N[C@@H](CCCCNC(=O)CC[C@H](NC(=O)CCCCCCCCCCCCCCCCC(=O)O)C(=O)O)C(=O)N[C@@H](CCC(N)=O)C(=O)N[C@H](C(=O)N[C@@H](CC(C)C)C(=O)N[C@@H](CC(C)C)C(=O)N[C@@H](CCCCN)C(=O)N[C@@H](CCC(N)=O)C(=O)N[C@@H](C)C(=O)N[C@@H](CCCNC(=N)N)C(=O)N[C@@H](CCC(N)=O)C(=O)N[C@@H](CCCCN)C(=O)NC(C)(C)C(=O)N[C@@H](CCC(N)=O)C(=O)N[C@@H](CCCNC(=N)N)C(=O)N[C@@H](C)C(=O)N[C@@H](CCC(N)=O)C(=O)N[C@@H](C)C(=O)N[C@@H](CCC(=O)O)C(=O)N[C@@H](CCCCN)C(=O)N[C@@H](CC(N)=O)C(=O)N[C@@H](CCCCN)C(=O)N[C@@H](CCCNC(=N)N)C(=O)N[C@H](C(=O)N[C@@H](CC(C)C)C(=O)N[C@@H](CCC(=O)O)C(=O)N[C@@H](CCCNC(=N)N)C(=O)N[C@H](C(N)=O)C(C)C)[C@@H](C)CC)[C@@H](C)CC)[C@@H](C)CC)C(C)C)C(C)C
B5 yielded an EC50 [nM], 0% HSA of 0.05 nM and an EC50 [nM], 0.1% HSA of 1.74 nM.

B6: SEQ ID NO: 179 (peptide)
peptide: IVLSLD[dV]PIKLK([γGlu-C18 diacid])QILLKQERQK[Aib]QREQAEKNKQILAQV-NH2
modifications: N-terminus assumed
SMILES: CC[C@H](C)[C@H](N)C(=O)N[C@H](C(=O)N[C@@H](CC(C)C)C(=O)N[C@@H](CO)C(=O)N[C@@H](CC(C)C)C(=O)N[C@@H](CC(=O)O)C(=O)N[C@@H](C(=O)N1CCC[C@H]1C(=O)N[C@H](C(=O)N[C@@H](CCCCN)C(=O)N[C@@H](CC(C)C)C(=O)N[C@@H](CCCCNC(=O)CC[C@H](NC(=O)CCCCCCCCCCCCCCCCC(=O)O)C(=O)O)C(=O)N[C@@H](CCC(N)=O)C(=O)N[C@H](C(=O)N[C@@H](CC(C)C)C(=O)N[C@@H](CC(C)C)C(=O)N[C@@H](CCCCN)C(=O)N[C@@H](CCC(N)=O)C(=O)N[C@@H](CCC(=O)O)C(=O)N[C@@H](CCCNC(=N)N)C(=O)N[C@@H](CCC(N)=O)C(=O)N[C@@H](CCCCN)C(=O)NC(C)(C)C(=O)N[C@@H](CCC(N)=O)C(=O)N[C@@H](CCCNC(=N)N)C(=O)N[C@@H](CCC(=O)O)C(=O)N[C@@H](CCC(N)=O)C(=O)N[C@@H](C)C(=O)N[C@@H](CCC(=O)O)C(=O)N[C@@H](CCCCN)C(=O)N[C@@H](CC(N)=O)C(=O)N[C@@H](CCCCN)C(=O)N[C@@H](CCC(N)=O)C(=O)N[C@H](C(=O)N[C@@H](CC(C)C)C(=O)N[C@@H](C)C(=O)N[C@@H](CCC(N)=O)C(=O)N[C@H](C(N)=O)C(C)C)[C@@H](C)CC)[C@@H](C)CC)[C@@H](C)CC)C(C)C)C(C)C
Regarding B6, the EC50 [nM], 0% HSA is 0.03 nM and the EC50 [nM], 0.1% HSA was determined as 1.88 nM.

(Values after US12679878B2, “CRF2 receptor agonists and their use in therapy” (SANOFI, priority 2020, dated 2026).)
